Measured values reported in PMC2693034.

What was measured:
[1] = target: IcmQ with a C-terminal 6xHis-tag (Legionella pneumophila); assay: SEC
[2] = target: IcmQ with a C-terminal 6xHis-tag (Legionella pneumophila); assay: […]
[3] = target: Qn(1-57), N-terminal domain of IcmQ (Legionella pneumophila); assay: SEC

Substance | stoichiometry N [1] | stoichiometry N [2] | stoichiometry N [3]
IcmQ with a C-terminal 6xHis-tag (natural protein) | 2 | 2 | –
Qn(1-57), N-terminal domain of IcmQ (domain or fragment) | – | – | 2
